# Reference: the DeepSol protein solubility set
# Experiment: soluble on expression in E. coli; label from the status in PepcDB or PDB records
row,Sequence,soluble on expression in E. coli
1,MGSDKIHHHHHHAPNEEGISVQKMTGFPEGEPGFSLGVSACYAGIYQGELLIAGGCNFPETPAAEGGKKKFYQGIYAADASADSVFVWRKVGQLPVAAAYGVSVSTPRGIVCVGGSNENGSLSTVYRLSLSDDKQAVIVDTLPSLPCTMDNMSGSVVDYTLFVAGGNVNGKPSNGLYCLNLGNPETGWQQLPDFPGAPRVQPVCVGQRKENETLLYLWGGFSGAFDGRSATLSTDGYCYSPSLQQWQPVSTPIGSDSVPVALGGGAGIALTDSLILCTGGVNKDIFLSALQREEMMKAAVTGGNQAAVDSLKSEAKTYMLHPAEWYRFNDRILIYNTRRDKWEEAVRSQDVARAGAALTTGQGQTFFNINGELKPGIRTPEIAKIMID,not soluble
2,MGCKISTEFCSDNPVGSISTSKVHPTDLSTPSYAIKPVEFYEEPLKDDQLFYKVALAKKEYREKEKDKKEQLSSNRRVSLQVEPNKLPIPLTRSSSLSSIMENRPPSGISNSSFIRSRNTASRRFTIDTSRAKSNQYVVSLCSKKIGIIEYPDGRSDKQPCDVYWHNVVLSDMNKIVTSPQSRVNKFPGMTELAKKISLTHSISSMQKLFPDEYAFYPNSWFLPAHLADFHAFYRKAQALGKTEMWFIVKPDEGAQGTGIYLINSPNQIRNVDQRQLVQEYVADPLLMNDKLKFDFRVYGVIKSINPLSIYVAREGMARFCTEKYEKPDSSNFKNLYAHLTNYSLNKANEAYVHSNTLQDQTRGSKRLLSTVFHQLESRGVKTKRLWHDIKLILVKTTLAMLPEIMLHYEHHFYDSTGPQCFQIMGFDVMIREDGTPILLEVNAAPSLTADHIVPHPGRTLLEGGQRVRSIVDEVIKIPLVRDTLLLVLGLMEEEYQNNSLKGETKSLDDMQTIKQRRKPHLSEIFPTRYGAHSGHLLFLDKAMYIYMQFVQLRSNVNITNAGLKQFVRKCNLIDIIPVVHVDAKVSEINYYFTGEKRTNGNGLPFHAFLMFLFFIAEKKFVLENDLLSKVQRLLSFCDMSLRRYGVRSARLRRAEVDSTIGNVEIYMLPSRMARNRSGTNGRKQNFTDDNNNPNSFAHLPKINERL,not soluble
3,MSLLRFSAVSRHHRGASIDPMTFSEATTPDALTPDAHTPRLLTCDVLYTGMGGAQSPGGVVVVGETVAAAGHPDELRRQYPHAAEERAGAVIAPPPVNAHTHLDMSAYEFQALPYFQWIPEVVIRGRHLRGVAAAQAGADTLTRLGAGGVGDIVWAPEVMDALLAREDLSGTLYFEVLNPFPDKADEVFAAARTHLERWRRLERPGLRLGLSPHTPFTVSHRLMRLLSDYAAGEGLPLQIHVAEHPTELEMFRTGGGPLWDNRMPALYPHTLAEVIGREPGPDLTPVRYLDELGVLAARPTLVHMVNVTPDDIARVARAGCAVVTCPRSNHHLECGTFDWPAFAAAGVEVALGTDSVASGETLNVREEVTFARQLYPGLDPRVLVRAAVKGGQRVVGGRTPFLRRGETWQEGFRWELSRDLEGHHHHHH,soluble
4,MELRNTKLEQLFYIYHRNLKYRCPMQYLTKRGFNLQDLLSVGGGLAYLGEKQWLNLSLYNFNNQLVGFLSRKVGFEKKFLYLPINKPPSKSESFLGLKHLPTET,not soluble
5,CYVDTNNDGAYEGDELHMGSLTVKAYLLGKEEAAREIRRFSFCFSPEPEAEAAAGPGPSERLLSRVAVLFPALRPGGFQAHYRAERGDLVAFSSDEELTMAMSYVKDDIFRIYIKEK,soluble
6,MLRAAGNLSKSMMKSQRRFLNLQEFQSKEILEKHGCSVQNFVVASNRKEAEEKWMSFGDHEYVVKAQILAGGRGKGKFINGTKGIGGVFITKEKDAALEAIDEMIGKRLVTKQTTSEGVRVDKVMIAEGVDIKRETYLAVLMDRESNGPVVVASPDGGMDIEAVAEKTPERIFKTPIDIQMGMTEGQSLKIAKDLQFEGKLIGVAAQEIKRLYDLFIAVDATQVEINPLVETADGRVFCVDAKMNFDDSAAYRQKEIFAYETFEEHDPREVDAHQFNLNYIGMDGNIACLVNGAGLAMATMDLIKLHGGEPANFLDVGGAVTEDAVFNAVRIITSDPRVKCVLINIFGGIVNCATIANGVVSAVNKIGLNVPMVVRLEGTNVDAAKQIMKKSGLKILTANNLDEAAAKAVSSLPK,not soluble
7,MAFKFKTFAAVGALIGSLALAGCGQDEKDPNHIKVGVIVGAEQQVAEVAQKVAKEKYGLDVELVTFNDYVLPNEALSKGDIDANAFQHKPYLDQQIKDRGYKLVSVGKTFVYPIAGYSKKIKSLDELKDGSQVAVPNDPTNLGRSLLLLQKVGLIKLKDGVGLLPTSLDIVENPKNLKIVELEAPQLPRSLDDAQIALAVINTTYASQIGLTPAKDGIFVEDKDSPYVNLIVTREDNKDAENVKKFVQAYQSDEVYEAANKVFNGGAVKGWLEHHHHHH,soluble
8,GAMAQKNEDECAVCRDGGELICCDGCPRAFHLACLSPPLREIPSGTWRCSSCLQATVQEVQPRAEE,soluble
9,MGHHHHHHSHMAKTYDYLFKLLLIGDSGVGKTCVLFRFSEDAFNSTFISTIGIDFKIRTIELDGKRIKLQIWDTAGQERFRTITTAYYRGAMGIMLVYDITNEKSFDNIRNWIRNIEEHASADVEKMILGNKCDVNDKRQVSKERGEKLALDYGIKFMETSAKANINVENAFFTLARDIKAKMDKKLEGNSPQGSNQGVKITPDQQKRSSFFRCVLL,soluble
10,MGSDKIHHHHHHMKSFDEMTPKEIVQELDKYIVGQYEAKKAVAIAVRNRIRRQKLPEEWRKEVLPKNILMIGPTGVGKTEIARRLAQLSGSPFLKVEATRFTEVGYVGKNVDSMIRDLVEISVNMVKQEKIKEVERQAEELVEERILDALVPESKAMPVVTNPFINLITGGQQQQYTPEDRRRFRAKREEMREKLRKGELEDEEIEIELEETVSPFMGIFGPGMEDLGIEITNMFSGMLPKRKKKRKMKVSEARKVLLPLEAEKLIDMDKVVQEALDRAQNRGIIFIDEIDKIAGKESAVGPDVSRQGVQRDLLPIVEGTTIMTKYGPVRTDFILFIAAGAFHVSRPSDLIPELQGRFPIRVELSPLTEEDFVRILKEPENAIIKQYQALLSTEGVELVFTEDGIREMARIAYQLNQRLENIGARRLYTVAEKVLEEISFEAPDIPEKRVVVDAEYVRRRLEKIVQDEDLSAYIL,not soluble
11,QPSPPQRPNRCTVCRKRVGLTGFMCRCGTTFCGSHRYPEVHGCTFDFKSAG,soluble
12,MAKMRISPELKKLIEKYRSVKDTEGMSPAKVYKLVGENENLYLKMTDSRYKGTTYDVEREKDMMLWLEGKLPVPKVLHFERHDGWSNLLMSEADGVLCSEEYEDEQSPEKIIELYAECIRLFHSIDISDCPYTNSLDSRLAELDYLLNNDLADVDSENWEEDTPFKDPRELYDFLKTEKPEEELVFSHGDLGDSNIFVKDGKVSGFIDLGRSGRADKWYDIAFCVRSIREDIGEEQYVELFFDLLGIKPDWEKIKYYILLDELF,soluble
13,EFVGRGIGNSVREDLSFNLLLSSDMDETQAQELQRQIAATPFVKDVSYISADQALEEMKKELGEDDPAKMLGYNPLQAEMCVHLKAQYTHPDSLKTIDSAIRTWNGVDNLEYRADMFDIVHRNTRR,not soluble
14,MSLSRKWLNKVKWDDHGLVPVIVQEQGSNDVLMFAFMNREALQKTVETGEAVFWSRSRKRLWHKGEESGHIQQVHEIRLDCDEDVVLLRVTQVGGIACHTGRHACFFQKFEGTAEDGDWHTVEPVLKNPDDIYAGKPGHNHEEGHHHHHH,not soluble
15,MGSDKIHHHHHHMLTRMMQATAAIQQSVDGYFAVPTSLLVPDARGGFSIYLKQERGFVLYAKEDEAFTMRHRMQLRAHGVTQVFVPAPQHPSFISHRERHFGRVLSDDSLPLPERARLFYETSTEIVKEVFEKKLPRTLKRETFDRILALVSEGISFLTLENSLKTVASLVAHDYHTYSHSLHVFVYSQALLQSYGFDEDSLVQFGLGAMLHDIGKTFLDAAILTKPAALTPDEREEVNRHPVFGVGACARMPLSQDAINCILFHHEKLDGSGYPCGLRGDEIPLPVRAITIADIYDALTSNRAYAPARNAFQVLRIMSSEMRDQLDLDMFRRFVLMLSGANVL,not soluble
